Laboratory results reported in paper PMC7260716, “Transcriptional analysis of arogenate dehydratase genes identifies a link between phenylalanine biosynthesis and lignin biosynthesis”.

B1: probe A2 (PADT-A 281-370) (dsDNA)
DNA 1: ACAACAGACTGGTAAGGCACACGTGCTTCCACGAGATCCACTAACTTGCGCGGGTGTTTACACACCTAACCACTCCGGAGCTTCCATGCT
DNA 2: AGCATGGAAGCTCCGGAGTGGTTAGGTGTGTAAACACCCGCGCAAGTTAGTGGATCTCGTGGAAGCACGTGTGCCTTACCAGTCTGTTGT
B2: probe D2 (PADT-D 192-318) (dsDNA)
DNA 1: GCTGGTGAGAAGGGCCAAACCAAAAAAAAACCAAACGAAATCACAGCGTACGATCTAACTAACCGTGTTGAATAGTCCCGTGACGTAGCCGCCGTAATGTGCAACAACCCACCATGGGATGGAGCAG
DNA 2: CTGCTCCATCCCATGGTGGGTTGTTGCACATTACGGCGGCTACGTCACGGGACTATTCAACACGGTTAGTTAGATCGTACGCTGTGATTTCGTTTGGTTTTTTTTTGGTTTGGCCCTTCTCACCAGC
B3: probe A1 (PADT-A 225-329) (dsDNA)
DNA 1: TAACTTGCGCGGGTGTTTACACACCTAACCACTCCGGAGCTTCCATGCTTCATCCACGAGTCAGAGGGGCCTTTCCTCCAACCACCCTAGATCAGCATGAGCTAT
DNA 2: ATAGCTCATGCTGATCTAGGGTGGTTGGAGGAAAGGCCCCTCTGACTCGTGGATGAAGCATGGAAGCTCCGGAGTGGTTAGGTGTGTAAACACCCGCGCAAGTTA

What was measured:
[1] = biological target: T1, PpMYB8 (Pinus pinaster, UniProt D7GLD4 1-534); test: EMSA; shift reduced by unlabeled probe; EMSA buffer, salt, pH and temperature not given in material (electrophoresis as in Rueda-López et al. 2008); conditions: protein: recombinant; label: 5'-biotin
[2] = biological target: T1, PpMYB8; test: EMSA; EMSA buffer, salt, pH and temperature not given in material (electrophoresis as in Rueda-López et al. 2008); conditions: protein: recombinant; label: 5'-biotin

T1 sequence (D7GLD4 entry or part of it): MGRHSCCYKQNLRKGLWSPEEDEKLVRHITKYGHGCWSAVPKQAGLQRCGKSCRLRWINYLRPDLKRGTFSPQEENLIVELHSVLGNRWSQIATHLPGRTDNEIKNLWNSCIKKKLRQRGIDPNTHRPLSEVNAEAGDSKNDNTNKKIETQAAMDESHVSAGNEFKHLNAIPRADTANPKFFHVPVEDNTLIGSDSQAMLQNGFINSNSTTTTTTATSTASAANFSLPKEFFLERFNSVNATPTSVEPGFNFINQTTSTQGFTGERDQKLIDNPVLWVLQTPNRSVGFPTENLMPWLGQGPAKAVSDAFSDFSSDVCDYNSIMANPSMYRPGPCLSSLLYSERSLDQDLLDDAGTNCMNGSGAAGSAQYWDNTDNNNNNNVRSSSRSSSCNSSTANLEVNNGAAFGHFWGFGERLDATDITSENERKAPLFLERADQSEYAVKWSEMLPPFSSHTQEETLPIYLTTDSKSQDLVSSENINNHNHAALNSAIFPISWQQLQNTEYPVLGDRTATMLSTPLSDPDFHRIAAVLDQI

Binder	binding result [1]	binding result [2]
B1	binds	
B2		no binding
B3		no binding
